Assay results from patent EP4692351A1, “ANTI-CD25 ANTIBODY AND ANTI-CD25 ANTIBODY-DRUG CONJUGATE” (priority 2023, dated 2024).
One block for each molecule: values may come before it.

How the values were obtained:
mouse CD25 [1] = biological target: T1, mouse CD25 (mouse, UniProt P01590 22-268); assay: cell-based or functional assay
T1 construct: Expressed on transiently transfected CHO-K1 cells in the Cell-ELISA; Endogenous on CTLL-2 cells and mouse pan T cells in the functional assays; also called mCD25; pCMV3-mCD25 (expression vector)
T1 sequence: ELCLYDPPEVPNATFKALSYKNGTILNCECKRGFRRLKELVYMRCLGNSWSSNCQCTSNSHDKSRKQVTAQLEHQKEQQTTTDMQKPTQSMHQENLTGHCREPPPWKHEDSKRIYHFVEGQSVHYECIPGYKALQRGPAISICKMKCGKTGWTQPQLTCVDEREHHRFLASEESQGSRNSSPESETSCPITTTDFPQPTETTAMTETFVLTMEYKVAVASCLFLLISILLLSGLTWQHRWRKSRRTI

human CD25 [2] = biological target: T2, human CD25 (human, UniProt P01589 22-272); assay: cell-based or functional assay
T2 construct: Expressed on transiently transfected CHO-K1 cells in the Cell-ELISA; Endogenous on human T cells, PBMC, Karpas-299 and EoL-1 in the functional assays; also called hCD25; IL-2 receptor alpha chain
T2 sequence: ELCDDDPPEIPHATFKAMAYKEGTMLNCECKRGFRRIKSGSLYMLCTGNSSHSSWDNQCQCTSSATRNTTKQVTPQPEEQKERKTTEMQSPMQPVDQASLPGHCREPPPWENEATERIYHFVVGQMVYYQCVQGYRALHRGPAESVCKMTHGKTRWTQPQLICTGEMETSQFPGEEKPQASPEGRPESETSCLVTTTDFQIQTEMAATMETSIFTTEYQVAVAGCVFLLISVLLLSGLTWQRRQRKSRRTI

mouse CD25 [3] = biological target: T1, mouse CD25; assay: Cell-ELISA on transfected CHO-K1 cells, anti-human IgG-HRP, A450
[4] = biological target: T3, CD25 antigen used as analyte in the Biacore measurement (Homo sapiens (Human), UniProt P01589 22-213, limits assumed); assay: SPR, Biacore T200, antibody captured on anti-human IgG (Fc) on CM5, antigen as analyte, 1:1 binding model
T3 construct: also called the antigen
T3 sequence: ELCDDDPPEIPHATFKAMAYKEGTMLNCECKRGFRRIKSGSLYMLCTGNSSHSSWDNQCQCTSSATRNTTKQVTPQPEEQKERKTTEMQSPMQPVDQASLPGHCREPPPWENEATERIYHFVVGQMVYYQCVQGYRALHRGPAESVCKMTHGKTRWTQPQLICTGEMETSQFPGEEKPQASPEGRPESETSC

cynomolgus monkey CD25 [5] = biological target: T4, cynomolgus monkey CD25 (cynomolgus monkey, UniProt Q5MNY4 22-272 (rhesus entry)); assay: Cell-ELISA on transfected CHO-K1 cells, anti-human IgG-HRP, A450; 20 to 0.001 µg/mL
T4 construct: Expressed on transiently transfected CHO-K1 cells; also called cCD25; pCI-cCD25 (expression vector)
T4 chain: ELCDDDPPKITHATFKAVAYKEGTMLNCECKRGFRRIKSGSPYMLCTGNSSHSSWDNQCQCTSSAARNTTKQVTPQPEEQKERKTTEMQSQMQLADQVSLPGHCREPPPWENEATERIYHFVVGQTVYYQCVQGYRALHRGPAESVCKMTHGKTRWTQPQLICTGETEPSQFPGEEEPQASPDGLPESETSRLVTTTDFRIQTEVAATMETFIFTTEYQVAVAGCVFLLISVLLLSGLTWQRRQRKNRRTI

cynomolgus monkey CD25 [6] = biological target: T4, cynomolgus monkey CD25; assay: Cell-ELISA on transfected CHO-K1 cells, anti-human IgG-HRP, A450; 80 to 0.001 µg/mL
cynomolgus monkey CD25 [7] = biological target: T4, cynomolgus monkey CD25; assay: Cell-ELISA on transfected CHO-K1 cells, anti-rat IgG-HRP, A450; 0.02 to 10 µg/mL
mouse CD25 [8] = biological target: T1, mouse CD25; assay: Cell-ELISA on transfected CHO-K1 cells, anti-rat IgG-HRP, A450
cynomolgus monkey CD25 [9] = biological target: T4, cynomolgus monkey CD25; assay: as above
human CD25 [10] = biological target: T2, human CD25; assay: as above
cynomolgus monkey CD25 [11] = biological target: T4, cynomolgus monkey CD25; assay: Cell-ELISA on transfected CHO-K1 cells, anti-human IgG-HRP, A450
human CD25 [12] = biological target: T2, human CD25; assay: as above

Molecule: Purified NA/LE Rat Anti-Mouse CD25 (PC61 antibody)
- cell survival rate of mouse pan T cells with Fab-ZAP rat (saporin), % of control antibody; 60 ng/mL (mouse CD25 [1]): 59%
- cell survival rate of mouse pan T cells with Fab-ZAP rat (saporin), % of control antibody; 300 ng/mL (mouse CD25 [1]): 39%
- cell survival rate of mouse pan T cells with Fab-ZAP rat (saporin), % of control antibody; 1500 ng/mL (mouse CD25 [1]): 31%
- cell survival rate of mouse pan T cells with Fab-ZAP rat (saporin), % of control antibody; 7500 ng/mL (mouse CD25 [1]): 29%

Molecule: PC61_hIgG1LALA (antibody)
- amount of pSTAT5 in mouse CTLL-2 cells with IL-2 (AlphaLISA), % of rat IgG2a control group; antibody solution 20 µg/mL (mouse CD25 [1]): 48%

Molecule: basiliximab (antibody)
- amount of pSTAT5 in human PBMC with IL-2 (AlphaLISA), % of hIgG1 control group (human CD25 [2]): 0.01%
- amount of pSTAT5 in human PBMC with IL-2 (AlphaLISA), % of human IgG1 control group (human CD25 [2]): 1.2%
- amount of pSTAT5 in human PBMC with IL-2 (AlphaLISA), % of rat IgG2a control group; antibody 20 µg/mL (human CD25 [2]): 1%

B2: cMAb1_hIgG1LALA antibody (antibody, V domains shown)
VH: EVQLVESGGGLVQPGRSLKLSCAASGFTFNNYYMVWVRQAPTKGLEWVAYISTGGGTTYYRESVKGRFTISRDNAKSTLYLQMDSLRSEDTATYYCTTSVYFSDGSSHYDGEWFAYWGQGTLVTVSS
VL: DTVLTQSPALAVSPGERVTISCKASESVSTRMHWYQQKPGQQPKLLIYKASNLASGVPARFSGSGSGTDFTLTIDPVEADDTATYFCQQSWNGWAFGGGTKLELKR
notes: Chimeric: rat MAb1 variable regions, human IgG1 LALA heavy constant region, human kappa constant region; also called human IgG1LALA chimeric MAb1
- binding result (mouse CD25 [3]): no binding (tested: 80 to 0.001 µg/mL)
- binding result (cynomolgus monkey CD25 [6]): binds

B3: hMAb1B antibody (antibody, human IgG1, kappa, V domains shown)
VH: EVQLVESGGGLVQPGGSLRLSCAASGFTFNNYYMVWVRQAPGKGLEWVAYISTGGGTTYYADSVKGRFTISRDNSKSTLYLQMNSLRAEDTAVYYCTTSVYFSDGSSHYDGEWFAYWGQGTLVTVSS
VL: EIVLTQSPGTLSLSPGERATLSCKASESVSTRMHWYQQKPGQAPRLLIYKASNLASGVPARFSGSGSGTDFTLTISRLEPEDFAVYFCQQSWNGWAFGQGTKVEIKR
notes: Humanized MAb1, human IgG1 / kappa; also called humanized antibody hMAb1B
- Kd [4]: 5.7 nM
- binding result (cynomolgus monkey CD25 [5]): binds

B6: cMAb2_hIgG1LALA antibody (antibody, V domains shown)
VH: QVKLLQSGAALEKPGASVKMSCKASGYTFTDYWVIWVKQSHGKSLEWIGEIYPNSGATNFNAKFKGKATLTVDKSTSTAYMELSRLTSEDSAIYYCTTYDFDYWGQGVMVTVSS
VL: DVVLTQTPPTLSATIGQSVSISCRSSQSLSHTNGNTYLYWLLQRPGQPPQLLIYFVSRLESGVPNRFSGSGSGTDFTLKISGVEAEDLGLYYCVQSTHVPNTFGAGTKLELKR
notes: 21-239 is used here; also called human IgG1LALA chimeric MAb2
- binding result (cynomolgus monkey CD25 [11]): no binding (tested: 80 to 0.001 µg/mL)
- binding result (human CD25 [12]): no binding (tested: 80 to 0.001 µg/mL)

The next lines start with the values.

- amount of pSTAT5 in human PBMC with IL-2 (AlphaLISA), % of rat IgG2a control group; antibody 20 µg/mL (human CD25 [2]): 103%
Molecule: 7G7B6 (antibody)

- binding result (mouse CD25 [3]): no binding (tested: 20 to 0.001 µg/mL)
- Kd [4]: 2.9 nM
- binding result (cynomolgus monkey CD25 [5]): binds
B1: hMAb1A antibody (antibody, human IgG1, kappa, V domains shown)
VH: EVQLVESGGGLVQPGGSLRLSCAASGFTFNNYYMVWVRQAPGKGLEWVAYISTGGGTTYYRESVKGRFTISRDNSKSTLYLQMNSLRAEDTAVYYCTTSVYFSDGSSHYDGEWFAYWGQGTLVTVSS
VL: DIVMTQSPDSLAVSLGERATINCKASESVSTRMHWYQQKPGQPPKLLIYKASNLASGVPARFSGSGSGTDFTLTISSLQAEDVAVYYCQQSWNGWAFGQGTKVEIKR
notes: Humanized MAb1, human IgG1 / kappa; also called humanized antibody hMAb1A; hMAb1 (in places)

- binding result (cynomolgus monkey CD25 [7]): binds
- binding result (mouse CD25 [8]): no binding (tested: up to 10 µg/mL)
B4: MAb1 antibody (antibody, V domains shown)
VH: EVQLVESGGGLVQPGRSLKLSCAASGFTFNNYYMVWVRQAPTKGLEWVAYISTGGGTTYYRESVKGRFTISRDNAKSTLYLQMDSLRSEDTATYYCTTSVYFSDGSSHYDGEWFAYWGQGTLVTVSS
VL: DTVLTQSPALAVSPGERVTISCKASESVSTRMHWYQQKPGQQPKLLIYKASNLASGVPARFSGSGSGTDFTLTIDPVEADDTATYFCQQSWNGWAFGGGTKLELKR
notes: Rat monoclonal antibody from a hybridoma

- binding result (cynomolgus monkey CD25 [9]): no binding (tested: up to 10 µg/mL)
- binding result (human CD25 [10]): no binding (tested: up to 10 µg/mL)
B5: MAb2 antibody (antibody, V domains shown)
VH: QVKLLQSGAALEKPGASVKMSCKASGYTFTDYWVIWVKQSHGKSLEWIGEIYPNSGATNFNAKFKGKATLTVDKSTSTAYMELSRLTSEDSAIYYCTTYDFDYWGQGVMVTVSS
VL: DVVLTQTPPTLSATIGQSVSISCRSSQSLSHTNGNTYLYWLLQRPGQPPQLLIYFVSRLESGVPNRFSGSGSGTDFTLKISGVEAEDLGLYYCVQSTHVPNTFGAGTKLELKR
notes: Rat monoclonal anti-mouse CD25 antibody from a hybridoma
